In the DeepSol protein solubility set:

assay: soluble on expression in E. coli; label from the status in PepcDB or PDB records

Row | Sequence | soluble on expression in E. coli
1 | MFYKEENFKKTEIGEIPEDWEIVELKDVCKKIKAGGTPKTSVEEYYKNGTIPFVKIEDITNSNKYLTNTKIKITEEGLNNSNAWIVPKNSVLFAMYGSIGETAINKIEVATNQAILGIIPKDNILESEFLYYILAKNKNYYSKLGMQTTQKNLNAQIVKSFKIPLPPLEEQKQIAKILTKIDEGIEIIEKSINKLERIKKGLMHKLLTKGIGHSRFKKSEIGEIPEDWEVFEIKDIFEVKTGTTPSTKKSEYWENGEINWITPLDLSRLNEKIYIGSSERKVTKIALEKCNLNLIPKGSIIISTRAPVGYVAVLTVESTFNQGCKGLFQKNNDSVNTEFYAYYLKFKKNLLENLSGGSTFKELSKSMLENFKIPLPPLEEQKQIAKILSSVDKSIELKKQKKEKLQRMKKKIMELLLTGKVRVKT | soluble
2 | MGANALDFYPEPLREEIERLNGRIYPAVNNGVYRAGFATRQDAYEEAFVQLFEELDYLEGLLGERRYLAGEYLTEADIRLFTTLVRFDAVYHGHFKCNLRRIEDYPNLSGWLRELYQRPGIGETVLEHHHHHH | not soluble
3 | MGASMTGGQQMGAPITAYAQQTRGLLGCIITSLTGRDKNQVEGEVQIVSTATQTFLATCINGVCWTVYHGAGTRTIASPKGPVIQMYTNVDQDLVGWPAPQGSRSLTPCTCGSSDLYLVTRHADVIPVRRRGDSRGSLLSPRPISYLKGSSGGPLLCPAGHAVGLFRAAVCTRGVAKAVDFIPVENLETTMRSGSHHHHHH | soluble
4 | MGATGVASQRKTIEESIERNKEKYIETSHDIHANPEIGNQEFYASRTLSLLLGSAGFQLQHNIAGHETGFIARKSSGKQGPAIAFLAEYDALPGLGHACGHNLIGTISVAAAIALSETLEEIGGEVVVFGTPAEEGGPNGSAKSSYVKAGLFKNIDAALMIHPSGKTATTSPSLAVDPLDFHFYGKTAHAAASPEEGINALDAVIQLYNSINALRQQLPSDVKIHGVITEGGKAPNIIPDYAAARFFIRAATRKRCAEVTEKVKNIAQGAALATDTKVKIHQFQNEIDELLVTKTYNDVVAEELELLGEDVNRKERFGIGSTDAGNVSQVVPTIHPYIKIGPDDLIAHTNEFREAARSELGDKALITSAKALANTAYRLITEEGLLEKVKEEFREAQRNQG | not soluble
5 | MGAYLNKPIIEKEKEEGSGNGLSYACTTMQGWRVNQEDAHNCVVDLHTDWHMFGVYDGHGGTEVSKFTSAKLPDFLKERKFWEADDVAECLQKAFVDFDDFIRAEESMKELKDIGDEGKPKKAGGEADSEDEADRIDTIEEASVPLAELLKRYGGAGVGKSLLSAFLAKGDVSDDSEDEDEDEEEAEEQDDTEEKKENEDASAEVVIENAEDKEEEEGSPKKKGQKRCQKSPIQSEAKKSKSETDAETAPSSSSGVDGVATEEEDEDDSDKEFVADEEEDDEDAEDEQSDEEMVDGSLAPLLLGSGGAEVPGEDSGTTACVCLVGKDKVIVANAGDSRAVLCRNGKAVDLSVDHKPEDEVETNRIHAAGGQIEDGRVNGGLNLSRAFGDHAYKKNQELGLKEQMITALPDVKIEALTPEDEFIVVACDGIWNSMESQQVVDFVRDLLAKGSSCAEVCDALCDACLADSTDGDGTGCDNMTVICTTFDRKSK | not soluble
6 | MGCDFAIAKDFLLFFLTKPISMKLSVIIPIYNEIQTIEKILKKITTVMPEIPKEIVMVDDGSKDGTREWLVDTFGDPEQHPVLANVNLAGKFQCFPLDQSAETNGDRQGNSFVMPKEWEVKVIFHRQNQGKGGALHTAFAAATGDVLIIQDADLEYDPEDWGPMWKLIDGGWADVVYGSRFYGNPHRVLYFHHYLGNKLITSLIDLVCNINLTDIEVCYKMFRREVLEDLRLTCNDFGFEVEFTMKVTRSPKRWRIYEVGVAYYGRTFAEGKKINWRDGVKALGYIAKFWLTNALEHHHHHH | not soluble
7 | MGDEYMDDDEDYGFEYEDDSGSEPDVDMENQYYTAKGLRSDGKLDEAIKSFEKVLELEGEKGEWGFKALKQMIKITFGQNRLEKMLEYYRQLLTYIKSAVTKNYSEKSINAILDYISTSRQMDLLQHFYETTLDALKDAKNERLWFKTNTKLGKLFFDLHEFTKLEKIVKQLKVSCKNEQGEEDQRKGTQLLEIYALEIQMYTEQKNNKALKWVYELATQAIHTKSAIPHPLILGTIRECGGKMHLRDGRFLDAHTDFFEAFKNYDESGSPRRTTCLKYLVLANMLIKSDINPFDSQEAKPFKNEPEIVAMTQMVQAYQDNDIQAFEQIMAAHQDSIMADPFIREHTEELMNNIRTQVLLRLIRPYTNVRISYLSQKLKVSQKEVIHLLVDAILDDGLEAKINEESGMIEMPKNKKKMMVTSLVVPNAGDQGTTKSDSKPGTSSEPSTTTSVTSSILQGPPATSSCHQELSMDGLRVWAERIDSIQSNIGTRIKF | not soluble
8 | MGDQPFIPPPQQTALTVNDHDEVTVWNAAPCPMLPRDQVYVRVEAVAINPSDTKMRGQFATPWAFLGTDYAGTVVAVGSDVTHIQVGDRVYGAQNEMCPRTPDQGAFSQYTVTRGRVWAKIPKGLSFEQAAALPAGISTAGLAMKLLGLPLPSPSADQPPTHSKPVYVLVYGGSTATATVTMQMLRLSGYIPIATCSPHNFDLAKSRGAEEVFDYRAPNLAQTIRTYTKNNLRYALDCITNVESTTFCFAAIGRAGGHYVSLNPFPEHAATRKMVTTDWTLGPTIFGEGSTWPAPYGRPGSEEERQFGEDLWRIAGQLVEDGRLVHHPLRVVQGGFDHIKQGMELVRKGELSGEKLVVRLEGPLEHHHHHH | soluble
9 | MGDSTFLDRMLLQLRSTCKYYSGYPKDLGPSRVLHFTSEREFVQLLHQGYPVVVAFTIRSNYTQHLDRMLEEAAAEFYPNIKFMRVECPKYPGFCITRQKNEYPFIEIFHSPQHAGNEGKVQDPNITRYSVKVVPYNYDMSPYGFREFFKRQGVRTSDPK | not soluble
10 | MGDTFIRHIALLGFEKRFIPSQHYVYMFLVKWQDLSEKVVYRKFTEIYEFHKMLKEMFPIEAGEIHTENRVIPHLPAPRWFDGQRAAESRQGTLTEYFNGLMGLPVKISRCPHLLDFFKVRPDDLKLPTDSQAKKPETYLVPKDGKNNVADITGPIILQTYRAIADYEKSSGTEMTVATGDVVDVVEKSESGWWFCQMKTKRGWVPASYLEPLDSPDEAEDPDPNYAGEPYVTIKAYAAVEEDEMSLSEGEAIEVIHKLLDGWWVVRKGDITGYFPSMYLQKAGEEITQAQRQIRGRGAPPRRSTIRNAQSIHQRSRKRLSQDTYRRNSVRFLQQRRRPGRPGPLSTDGTKDNPSTPRVKPQPAVPPRPSSDLILHRCTESTKRKLTSAV | soluble
